Measurements published in US20160280794A1.

Molecular target: Ramos (human) (UniProt P11836)
Assay: FACS binding; Ramos cells

Chain of Ramos (human) (P11836 whole entry): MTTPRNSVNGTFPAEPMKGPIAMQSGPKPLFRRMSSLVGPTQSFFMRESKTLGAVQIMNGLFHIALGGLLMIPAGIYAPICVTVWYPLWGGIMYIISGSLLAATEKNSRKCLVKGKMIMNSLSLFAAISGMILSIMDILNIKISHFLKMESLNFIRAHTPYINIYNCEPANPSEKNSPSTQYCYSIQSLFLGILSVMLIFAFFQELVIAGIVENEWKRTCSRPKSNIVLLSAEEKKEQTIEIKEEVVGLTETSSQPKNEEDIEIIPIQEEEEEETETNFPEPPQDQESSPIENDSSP

| Substance | EC50 [µg/mL] |
| --- | --- |
| Rituxan-SCT | 1.2 |
| Rituxan-GlcNAc | 1.54 |
